Assay results taken from patent US20260078157A1.

How the values were obtained:
[1] = target: human KLB and FGFR1c overexpressed on HEK293 cells (human) (UniProt Q86Z14); assay: cell-based or functional assay
[2] = target: surface of live cells; assay: association and dissociation on the surface of live cells; method not stated

Sequence of UniProt Q86Z14 (Q86Z14 whole entry, chain 1 of 2): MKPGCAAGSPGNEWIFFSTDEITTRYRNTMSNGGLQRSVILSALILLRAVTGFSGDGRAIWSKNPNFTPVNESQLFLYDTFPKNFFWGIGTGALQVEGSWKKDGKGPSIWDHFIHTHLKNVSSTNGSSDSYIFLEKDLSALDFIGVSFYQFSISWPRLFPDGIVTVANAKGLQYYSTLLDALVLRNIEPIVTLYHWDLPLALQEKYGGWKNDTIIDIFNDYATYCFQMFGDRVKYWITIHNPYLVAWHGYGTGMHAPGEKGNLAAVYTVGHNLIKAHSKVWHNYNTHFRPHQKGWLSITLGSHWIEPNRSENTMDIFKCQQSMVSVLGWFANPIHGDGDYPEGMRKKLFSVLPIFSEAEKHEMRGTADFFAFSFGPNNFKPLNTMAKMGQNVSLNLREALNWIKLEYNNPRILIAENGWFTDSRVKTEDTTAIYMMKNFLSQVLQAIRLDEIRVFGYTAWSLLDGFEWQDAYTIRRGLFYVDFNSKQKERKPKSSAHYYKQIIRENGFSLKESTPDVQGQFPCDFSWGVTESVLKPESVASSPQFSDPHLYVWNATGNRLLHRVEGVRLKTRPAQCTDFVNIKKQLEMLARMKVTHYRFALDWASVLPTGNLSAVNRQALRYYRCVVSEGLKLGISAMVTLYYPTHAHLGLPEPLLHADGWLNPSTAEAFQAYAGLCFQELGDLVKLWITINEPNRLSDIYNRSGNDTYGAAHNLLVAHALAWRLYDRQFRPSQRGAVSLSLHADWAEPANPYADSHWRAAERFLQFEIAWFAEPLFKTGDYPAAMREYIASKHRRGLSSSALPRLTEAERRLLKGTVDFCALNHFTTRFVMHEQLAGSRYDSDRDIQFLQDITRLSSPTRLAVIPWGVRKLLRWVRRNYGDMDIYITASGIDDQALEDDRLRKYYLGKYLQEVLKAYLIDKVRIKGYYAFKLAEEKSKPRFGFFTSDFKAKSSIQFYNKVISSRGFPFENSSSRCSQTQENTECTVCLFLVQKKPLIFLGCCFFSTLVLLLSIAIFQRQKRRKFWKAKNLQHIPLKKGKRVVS
Sequence of UniProt Q86Z14 (P11362 22-822, chain 2 of 2, further chain): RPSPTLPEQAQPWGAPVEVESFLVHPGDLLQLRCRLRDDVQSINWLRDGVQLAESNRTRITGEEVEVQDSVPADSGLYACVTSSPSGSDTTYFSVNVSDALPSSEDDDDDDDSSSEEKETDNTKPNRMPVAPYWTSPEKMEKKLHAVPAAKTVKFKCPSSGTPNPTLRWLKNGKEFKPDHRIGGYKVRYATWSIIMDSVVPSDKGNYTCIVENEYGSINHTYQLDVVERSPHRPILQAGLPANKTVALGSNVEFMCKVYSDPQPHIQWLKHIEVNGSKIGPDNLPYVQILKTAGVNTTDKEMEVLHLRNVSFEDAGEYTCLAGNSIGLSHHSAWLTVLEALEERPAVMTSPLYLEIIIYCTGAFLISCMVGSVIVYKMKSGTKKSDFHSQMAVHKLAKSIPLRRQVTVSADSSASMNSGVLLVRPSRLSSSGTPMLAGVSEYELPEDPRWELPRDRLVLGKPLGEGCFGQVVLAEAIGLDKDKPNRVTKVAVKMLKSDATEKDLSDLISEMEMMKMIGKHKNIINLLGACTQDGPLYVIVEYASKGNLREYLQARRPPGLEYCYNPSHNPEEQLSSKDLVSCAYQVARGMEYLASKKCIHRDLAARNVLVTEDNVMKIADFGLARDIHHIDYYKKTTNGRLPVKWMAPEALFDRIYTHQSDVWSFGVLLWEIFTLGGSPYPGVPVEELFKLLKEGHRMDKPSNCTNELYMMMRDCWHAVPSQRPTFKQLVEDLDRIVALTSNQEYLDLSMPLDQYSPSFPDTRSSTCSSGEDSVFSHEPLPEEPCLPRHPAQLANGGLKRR

cell-based potency assay, Elk1 luciferase reporter in HEK293 cells overexpressing human KLB and FGFR1c; potency relative to ¾ EFX [1]: 2 fold | fold more stable interaction, compared to either free FGF21 or a single FGF21 domain linked to an Fc domain [2]: > 100 fold
Substance: Efruxifermin (EFX) (Fc fusion)
